Data taken from patent US20190300590A1 (PROTAGONIST THERAPEUTICS, published 2019).
Bridges are numbered along the chain shown (N, C = ends). [ ]: non-standard residue; d: D form. 2Nal = N[C@@H](Cc1ccc2ccccc2c1)C(=O)O; AEF = NCCOc1ccc(C[C@H](N)C(=O)O)cc1; NMeR = CN[C@@H](CCCNC(=N)N)C(=O)O; Cit = NC(=O)NCCC[C@H](N)C(=O)O; αMeL = CC(C)C[C@](C)(N)C(=O)O; NMeK = CN[C@@H](CCCCN)C(=O)O; αMeK = C[C@](N)(CCCCN)C(=O)O; Ac5c = NC1(C(=O)O)CCCC1; Abu = CC[C@H](N)C(=O)O; Dap = NC[C@H](N)C(=O)O; Aib = CC(C)(N)C(=O)O; PEG1 = NCCOCCC(=O)O; AEA = NCCOCC(=O)O; βAla = NCCC(=O)O

T1: IL23R_huFC (human, UniProt Q5VWK5 24-353)
T1 sequence (looked up): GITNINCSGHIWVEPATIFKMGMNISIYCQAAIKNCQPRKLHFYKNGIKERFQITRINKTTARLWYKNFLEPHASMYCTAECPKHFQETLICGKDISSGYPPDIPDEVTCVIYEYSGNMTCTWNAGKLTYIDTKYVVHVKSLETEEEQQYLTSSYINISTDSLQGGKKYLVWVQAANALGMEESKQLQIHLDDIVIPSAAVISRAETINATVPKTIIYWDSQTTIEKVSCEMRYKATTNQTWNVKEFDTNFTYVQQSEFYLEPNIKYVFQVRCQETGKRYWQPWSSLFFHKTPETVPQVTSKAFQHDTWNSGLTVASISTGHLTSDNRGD

T2: IL-23R on human cells (IL-23R-expressing DB cells; human NK cells) (human, UniProt Q5VWK5 24-629)
T2 sequence (looked up): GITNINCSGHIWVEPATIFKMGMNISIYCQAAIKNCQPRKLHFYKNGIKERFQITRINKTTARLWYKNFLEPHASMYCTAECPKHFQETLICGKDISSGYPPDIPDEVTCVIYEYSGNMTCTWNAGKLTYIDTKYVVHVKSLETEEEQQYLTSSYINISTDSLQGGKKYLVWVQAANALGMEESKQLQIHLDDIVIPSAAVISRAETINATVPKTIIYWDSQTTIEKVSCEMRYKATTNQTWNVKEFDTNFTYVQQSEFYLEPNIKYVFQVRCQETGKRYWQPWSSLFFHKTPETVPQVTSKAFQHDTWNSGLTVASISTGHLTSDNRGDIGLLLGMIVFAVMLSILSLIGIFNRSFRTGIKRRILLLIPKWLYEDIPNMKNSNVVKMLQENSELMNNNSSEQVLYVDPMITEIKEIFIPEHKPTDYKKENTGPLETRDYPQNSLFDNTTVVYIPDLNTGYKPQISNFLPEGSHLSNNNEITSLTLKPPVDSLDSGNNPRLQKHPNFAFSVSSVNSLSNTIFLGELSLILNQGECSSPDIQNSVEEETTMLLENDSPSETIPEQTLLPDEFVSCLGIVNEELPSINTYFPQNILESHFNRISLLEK


What was measured:
IL23R_huFC = biological target: T1, IL23R_huFC; assay: IL23-IL23R competitive ELISA
[1] = biological target: T2, IL-23R on human cells …; assay: cell-based or functional assay

Binder | IC50 (IL23R_huFC) | pStat3 HTRF IC50 [1]
Ac-CQTWQCYW[dR]ENG[AEA][dK]-NH2 (disulfide 1-6 (inferred)) [Ac-CQTWQCYW-[(D)Arg]-ENG-[AEA]-[(D)-Lys]-NH2] | > 1000 nM | 
Ac-CRDWQCYW[NMeR]KFG[PEG1][dK]-NH2 (disulfide 1-6; SMILES CC(=O)N[C@H]1CSSC[C@@H](C(=O)N[C@@H](Cc2ccc(O)cc2)C(=O)N[C@@H](Cc2c[nH]c3ccccc23)C(=O)N(C)[C@@H](CCCNC(=N)N)C(=O)N[C@@H](CCCCN)C(=O)N[C@@H](Cc2ccccc2)C(=O)NCC(=O)NCCOCCC(=O)N[C@H](CCCCN)C(N)=O)NC(=O)[C@H](CCC(N)=O)NC(=O)[C@H](Cc2c[nH]c3ccccc23)NC(=O)[C@H](CC(=O)O)NC(=O)[C@H](CCCNC(=N)N)NC1=O) [Ac-CRDWQCYW-[N-MeArg]-KFG-[AEP]-[(D)-Lys]-NH2] | > 1000 nM | 
Ac-CQTWQCYW[NMeR]ENG[AEA][dK]-NH2 (disulfide 1-6 (inferred)) [Ac-CQTWQCYW-[N-MeArg]-ENG-[AEA]-[(D)-Lys]-NH2, listing 1 of 2 here] | > 1000 nM | 
Ac-CQTWQCYW[dR][dE]NG[AEA][dK]-NH2 (disulfide 1-6 (inferred)) [Ac-CQTWQCYW-[(D)Arg]-[(D)Glu]-NG-[AEA]-[(D)Lys]-NH2] | > 1000 nM | 
Ac-CQTWQCYWR[NMeK]NG[AEA][dK]-NH2 (disulfide 1-6; SMILES CC(=O)N[C@H]1CSSC[C@@H](C(=O)N[C@@H](Cc2ccc(O)cc2)C(=O)N[C@@H](Cc2c[nH]c3ccccc23)C(=O)N[C@@H](CCCNC(=N)N)C(=O)N(C)[C@@H](CCCCN)C(=O)N[C@@H](CC(N)=O)C(=O)NCC(=O)NCCOCC(=O)N[C@H](CCCCN)C(N)=O)NC(=O)[C@H](CCC(N)=O)NC(=O)[C@H](Cc2c[nH]c3ccccc23)NC(=O)[C@H]([C@@H](C)O)NC(=O)[C@H](CCC(N)=O)NC1=O) [Ac-CQTWQCYWR-[N-MeLys]-NG-[AEA]-[(D)-Lys]-NH2] | > 1000 nM | 
Ac-CQTWQCYW[NMeR]ENG[AEA][dK]-NH2 (disulfide 1-6 (inferred)) [Ac-CQTWQCYW-[N-MeArg]-ENG-[AEA]-[(D)-Lys]-NH2, listing 2 of 2 here] | > 1000 nM | 
Ac-CRDWQCYWR[dK]FG[PEG1][dK]-NH2 (disulfide 1-6; SMILES CC(=O)N[C@H]1CSSC[C@@H](C(=O)N[C@@H](Cc2ccc(O)cc2)C(=O)N[C@@H](Cc2c[nH]c3ccccc23)C(=O)N[C@@H](CCCNC(=N)N)C(=O)N[C@H](CCCCN)C(=O)N[C@@H](Cc2ccccc2)C(=O)NCC(=O)NCCOCCC(=O)N[C@H](CCCCN)C(N)=O)NC(=O)[C@H](CCC(N)=O)NC(=O)[C@H](Cc2c[nH]c3ccccc23)NC(=O)[C@H](CC(=O)O)NC(=O)[C@H](CCCNC(=N)N)NC1=O) [Ac-CRDWQCYWR-[(D)Lys]-FG-[AEP]-[(D)-Lys]-NH2] | > 1000 nM | 
Ac-CRDWQCYW[dR]KFG[PEG1][dK]-NH2 (disulfide 1-6; SMILES CC(=O)N[C@H]1CSSC[C@@H](C(=O)N[C@@H](Cc2ccc(O)cc2)C(=O)N[C@@H](Cc2c[nH]c3ccccc23)C(=O)N[C@H](CCCNC(=N)N)C(=O)N[C@@H](CCCCN)C(=O)N[C@@H](Cc2ccccc2)C(=O)NCC(=O)NCCOCCC(=O)N[C@H](CCCCN)C(N)=O)NC(=O)[C@H](CCC(N)=O)NC(=O)[C@H](Cc2c[nH]c3ccccc23)NC(=O)[C@H](CC(=O)O)NC(=O)[C@H](CCCNC(=N)N)NC1=O) [Ac-CRDWQCYW-[(D)Arg]-KFG-[AEP]-[(D)-Lys]-NH2] | > 1000 nM | 
Ac-CQTWQCYWR[NMeR]NG[AEA][dK]-NH2 (disulfide 1-6; SMILES CC(=O)N[C@H]1CSSC[C@@H](C(=O)N[C@@H](Cc2ccc(O)cc2)C(=O)N[C@@H](Cc2c[nH]c3ccccc23)C(=O)N[C@@H](CCCNC(=N)N)C(=O)N(C)[C@@H](CCCNC(=N)N)C(=O)N[C@@H](CC(N)=O)C(=O)NCC(=O)NCCOCC(=O)N[C@H](CCCCN)C(N)=O)NC(=O)[C@H](CCC(N)=O)NC(=O)[C@H](Cc2c[nH]c3ccccc23)NC(=O)[C@H]([C@@H](C)O)NC(=O)[C@H](CCC(N)=O)NC1=O) [Ac-CQTWQCYWR-[N-MeArg]-NG-[AEA]-[(D)-Lys]-NH2] | > 1000 nM | 
Ac-CQTWQCYWR[dE]NG[AEA][dK]-NH2 (disulfide 1-6; SMILES CC(=O)N[C@H]1CSSC[C@@H](C(=O)N[C@@H](Cc2ccc(O)cc2)C(=O)N[C@@H](Cc2c[nH]c3ccccc23)C(=O)N[C@@H](CCCNC(=N)N)C(=O)N[C@H](CCC(=O)O)C(=O)N[C@@H](CC(N)=O)C(=O)NCC(=O)NCCOCC(=O)N[C@H](CCCCN)C(N)=O)NC(=O)[C@H](CCC(N)=O)NC(=O)[C@H](Cc2c[nH]c3ccccc23)NC(=O)[C@H]([C@@H](C)O)NC(=O)[C@H](CCC(N)=O)NC1=O) [Ac-CQTWQCYWR-[(D)Glu]-NG-[AEA[(D)-Lys]-NH2] | > 1000 nM | 
Ac-CRDWQCYW[dR][dK]FG[PEG1][dK]-NH2 (disulfide 1-6; SMILES CC(=O)N[C@H]1CSSC[C@@H](C(=O)N[C@@H](Cc2ccc(O)cc2)C(=O)N[C@@H](Cc2c[nH]c3ccccc23)C(=O)N[C@H](CCCNC(=N)N)C(=O)N[C@H](CCCCN)C(=O)N[C@@H](Cc2ccccc2)C(=O)NCC(=O)NCCOCCC(=O)N[C@H](CCCCN)C(N)=O)NC(=O)[C@H](CCC(N)=O)NC(=O)[C@H](Cc2c[nH]c3ccccc23)NC(=O)[C@H](CC(=O)O)NC(=O)[C@H](CCCNC(=N)N)NC1=O) [Ac-CRDWQCYW-[(D)Arg]-[(D)Lys]-FG-[AEP]-[(D)-Lys]-NH2] | > 1000 nM | 
Ac-[Abu]QTWQC[AEF][2Nal][αMeL]ENG-NH2 (thioether 1-6) [Ac-Cyclo-[[Abu]-QTWQC]-[Phe[4-(2-aminoethoxy)]]-[2-Nal]-[α-MeLeu]-ENG-NH2] |  | < 10 nM
Ac-[Abu]QTWQC[AEF][2Nal][Ac5c]ENN-NH2 (thioether 1-6) [Ac-Cyclo-[[Abu]-QTWQC]-[Phe[4-(2-aminoethoxy)]]-[2-Nal]-[Acvc]-ENN-NH2] |  | < 10 nM
Ac-[Abu]QTWQC[AEF][2Nal][Aib]QN[βAla]-NH2 (thioether 1-6) [Ac-Cyclo-[[Abu]-QTWQC]-[Phe[4-(2-aminoethoxy)]]-[2-Nal]-[Aib]-QN-[βAla]-NH2] |  | < 10 nM
Ac-[Abu]QTWQC[AEF][2Nal][αMeL]QNG-NH2 (thioether 1-6) [Ac-Cyclo-[[Abu]-QTWQC]-[Phe[4-(2-aminoethoxy)]]-[2-Nal]-[α-MeLeu]-QNG-NH2] |  | < 10 nM
Ac-CADWECYWHTFG-NH2 (disulfide 1-6 (inferred)) [Ac-CADWECYWHTFG-NH2] | > 1000 nM | 
Ac-CATWVCYWHTFG-NH2 (disulfide 1-6 (inferred)) [Ac-CATWVCYWHTFG-NH2] | > 1000 nM | 
Ac-CKDWVCYWHTFG-OH (disulfide 1-6 (inferred)) [Ac-CKDWVCYWHTFG-OH] | > 1000 nM | 
Ac-CADWKCYWHTFG-OH (disulfide 1-6 (inferred)) [Ac-CADWKCYWHTFG-OH] | > 1000 nM | 
Ac-CADWVCYWHTKG-OH (disulfide 1-6 (inferred)) [Ac-CADWVCYWHTKG-OH] | > 1000 nM | 
Ac-CADWVCYWHTF[dK]-OH (disulfide 1-6 (inferred)) [Ac-CADWVCYWHTF-[(D)Lys]-OH] | > 1000 nM | 
Ac-CADWVCYWKTFG-OH (disulfide 1-6 (inferred)) [Ac-CADWVCYWKTFG-OH] | > 1000 nM | 
H-CADWVCYAHTFG-NH2 (disulfide 1-6 (inferred)) [Hy-CADWVCYAHTFG-NH2] | > 1000 nM | 
Ac-CADWVCYWHKFG-OH (disulfide 1-6 (inferred)) [Ac-CADWVCYWHKFG-OH] | > 1000 nM | 
Ac-[Abu]QTWQC[AEF]W[αMeK]K(Ac)NG-NH2 (thioether 1-6) [Ac-Cyclo-[[Abu]-QTWQC]-[Phe[4-(2-aminoethoxy)]]-W-[α-MeLys]-[Lys(Ac)]-NG-NH2] |  | < 10 nM
Ac-[Abu]QTWQC[AEF][2Nal][Cit][Dap]NG-NH2 (thioether 1-6) [Ac-Cyclo-[[Abu]-QTWQC]-[Phe[4-(2-aminoethoxy)]]-[2-Nal]-[Cit]-[Dap]-NG-NH2] |  | < 10 nM
Ac-[Abu]QTWQC[AEF][2Nal][4‑amino‑4‑carboxy‑piperidine]ENN-NH2 (thioether 1-6) [Ac-Cyclo-[[Abu]-QTWQC]-[Phe[4-(2-aminoethoxy)]]-[2-Nal]-[4-amino-4-carboxy-piperidine]-ENN-NH2] |  | < 10 nM
Ac-[Abu]QTWQC[AEF][2Nal][Aib]E[Dap](Ac)G-NH2 (thioether 1-6) [Ac-Cyclo-[[Abu]-QTWQC]-[Phe[4-(2-aminoethoxy)]]-[2-Nal]-[Aib]-E-[Dap(Ac)]-G-NH2] |  | < 10 nM
Ac-[Abu]QTWQC[AEF][2Nal][αMeL]K(Ac)NG-NH2 (thioether 1-6) [Ac-Cyclo-[[Abu]-QTWQC]-[Phe[4-(2-aminoethoxy)]]-[2-Nal]-[α-MeLeu]-[Lys(Ac)]-NG-NH2] |  | < 10 nM
